The values below come from paper PMC7510528 (Cell, 2020).

The target of this test is T1, RBD-Fc (RBD-SD1 part of SARS-CoV2-S1, amino acids 319-591, fused to the constant region of rabbit IgG1 heavy … (SARS-CoV-2 (reference sequence, …, UniProt P0DTC2))).
T1 construct: source: HEK293T, cell culture supernatant, immobilized onto plates via anti-rabbit IgG
Briefly: ELISA. The settings on record: partners not purified.

B1: HK CV07-202 (antibody, V domains shown)
VH: EVQLVESGGGLIQPGGSLRLSCAASGFTVSSNYMSWVRQAPGKGLEWISVIYSGGSTFYADSVKGRFTISRDNSKNTLYLQMNSLRAEDTAVYYCARDLYYYGMDVWGQGTTVTVSS
VL: DIQLTQSPSFLSASVGDRVTITCRASQGISSYLAWYQQKPGKAPKLLIYAASTLQSGVPSRFSGSGSGTEFTLTISSLQPEDFATYYCQQLNNYSVTFGGGTKVEIK
With B1, the binding result is recorded as “binds”.
